Assay results published in patent US20140087995A1 (published 2014).
Numbered stars: 1 amine (or outer) side, 2 acyl side, 3 side chain; on linkers, the order of the positions; unused ones are H or OH. Bridge positions count the residues as written; N and C are the ends. Side chains are listed from the residue outwards. Ends that are not written are not given here. * marks the point of attachment. C20 diacid = O=C(O)CCCCCCCCCCCCCCCCCCC(=O)*; γGlu = O=C(O)[C@H](CCC(=O)[*:2])N[*:1]; AEEA = NCCOCCOCC(=O)O

T1: rat calcitonin receptor (rat, UniProt P32214 25-516)
T1 construct: whole, on cells; Cell membranes of transiently transfected BHK tk'ts 13 cells (Assay VIII); also called rCTR; rCT
T1 sequence (looked up): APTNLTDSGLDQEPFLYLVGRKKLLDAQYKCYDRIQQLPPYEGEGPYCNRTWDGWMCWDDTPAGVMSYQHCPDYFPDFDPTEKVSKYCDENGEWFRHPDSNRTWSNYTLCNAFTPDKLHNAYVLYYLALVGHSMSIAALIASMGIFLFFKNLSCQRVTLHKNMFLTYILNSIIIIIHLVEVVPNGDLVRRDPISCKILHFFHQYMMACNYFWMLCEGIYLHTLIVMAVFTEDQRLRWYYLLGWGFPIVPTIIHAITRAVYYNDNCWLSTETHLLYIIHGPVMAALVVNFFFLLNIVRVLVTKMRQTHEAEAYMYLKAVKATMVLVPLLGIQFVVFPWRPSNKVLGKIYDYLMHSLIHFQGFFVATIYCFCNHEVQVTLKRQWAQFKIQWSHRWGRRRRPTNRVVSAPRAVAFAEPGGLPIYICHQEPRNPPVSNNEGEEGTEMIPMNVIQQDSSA

T2: rat amylin receptor (rat calcitonin receptor + rat RAMP 3) (rat, UniProt P32214 25-516; Q9JJ73 23-147)
T2 construct: whole, on cells; Cell membranes of transiently transfected BHK tk'ts 13 cells (Assay VI); also called rAmylin-R; rat amylin 3(a) receptor
T2 sequence (looked up) 1: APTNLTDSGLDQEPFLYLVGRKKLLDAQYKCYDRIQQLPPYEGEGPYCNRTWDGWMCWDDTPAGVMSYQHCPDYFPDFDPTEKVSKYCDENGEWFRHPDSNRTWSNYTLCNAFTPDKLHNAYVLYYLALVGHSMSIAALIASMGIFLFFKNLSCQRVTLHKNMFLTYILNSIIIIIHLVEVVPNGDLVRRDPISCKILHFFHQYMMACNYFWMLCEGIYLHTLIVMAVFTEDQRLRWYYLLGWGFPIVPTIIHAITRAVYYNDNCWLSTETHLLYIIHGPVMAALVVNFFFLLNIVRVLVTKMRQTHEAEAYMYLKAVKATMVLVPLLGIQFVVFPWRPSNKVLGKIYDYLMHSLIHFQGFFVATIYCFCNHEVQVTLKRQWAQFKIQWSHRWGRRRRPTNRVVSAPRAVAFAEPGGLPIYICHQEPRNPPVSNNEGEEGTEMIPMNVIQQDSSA
T2 sequence (looked up) 2: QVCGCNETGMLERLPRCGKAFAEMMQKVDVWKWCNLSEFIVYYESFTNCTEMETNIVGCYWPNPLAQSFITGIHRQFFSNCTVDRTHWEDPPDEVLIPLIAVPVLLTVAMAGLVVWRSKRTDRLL

T3: rat amylin receptor (rat calcitonin receptor + rat RAMP 3) (rat, UniProt P32214 25-516; Q9JJ73 23-147)
T3 construct: whole, on cells; membranes of transiently transfected BHK tk'ts 13 cells (Assay VI); also called rAmylin-R; rat amylin 3(a) receptor
T3 sequence (looked up) 1: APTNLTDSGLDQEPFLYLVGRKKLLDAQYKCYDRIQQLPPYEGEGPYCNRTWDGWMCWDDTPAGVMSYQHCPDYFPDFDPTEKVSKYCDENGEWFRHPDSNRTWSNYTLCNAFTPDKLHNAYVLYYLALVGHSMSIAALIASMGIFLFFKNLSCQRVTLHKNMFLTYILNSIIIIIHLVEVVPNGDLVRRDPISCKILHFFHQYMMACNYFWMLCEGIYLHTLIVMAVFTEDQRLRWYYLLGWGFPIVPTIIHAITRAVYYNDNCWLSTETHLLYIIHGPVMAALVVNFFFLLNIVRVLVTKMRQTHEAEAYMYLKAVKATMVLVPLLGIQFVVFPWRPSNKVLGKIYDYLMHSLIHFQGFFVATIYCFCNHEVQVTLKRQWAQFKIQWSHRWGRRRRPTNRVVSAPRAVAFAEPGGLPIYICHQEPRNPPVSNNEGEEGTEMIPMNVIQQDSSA
T3 sequence (looked up) 2: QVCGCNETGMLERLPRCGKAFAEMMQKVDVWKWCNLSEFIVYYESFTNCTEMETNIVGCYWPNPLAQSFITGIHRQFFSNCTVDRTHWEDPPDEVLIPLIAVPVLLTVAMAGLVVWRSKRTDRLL

T4: rat calcitonin receptor (rat, UniProt P32214 25-516)
T4 construct: whole, on cells; membranes of transiently transfected BHK tk'ts 13 cells (Assay VIII); also called rCTR; rat calcitonin (a) receptor
T4 sequence (looked up): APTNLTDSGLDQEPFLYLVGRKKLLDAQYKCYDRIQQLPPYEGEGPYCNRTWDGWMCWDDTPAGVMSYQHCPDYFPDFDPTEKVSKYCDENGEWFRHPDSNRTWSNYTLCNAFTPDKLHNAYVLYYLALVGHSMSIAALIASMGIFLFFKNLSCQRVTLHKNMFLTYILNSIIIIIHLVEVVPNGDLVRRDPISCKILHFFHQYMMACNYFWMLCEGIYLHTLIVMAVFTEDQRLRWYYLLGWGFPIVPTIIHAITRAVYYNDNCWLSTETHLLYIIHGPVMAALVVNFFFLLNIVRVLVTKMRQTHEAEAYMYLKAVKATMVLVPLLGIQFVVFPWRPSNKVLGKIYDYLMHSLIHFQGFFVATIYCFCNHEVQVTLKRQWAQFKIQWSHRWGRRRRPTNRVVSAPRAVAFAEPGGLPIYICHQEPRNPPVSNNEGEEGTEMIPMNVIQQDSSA

T5: human calcitonin receptor (human, UniProt P30988 25-474)
T5 construct: whole, on cells; membranes of stably transfected BHK cells (Assay VII); also called hCTR; hCT
T5 sequence (looked up): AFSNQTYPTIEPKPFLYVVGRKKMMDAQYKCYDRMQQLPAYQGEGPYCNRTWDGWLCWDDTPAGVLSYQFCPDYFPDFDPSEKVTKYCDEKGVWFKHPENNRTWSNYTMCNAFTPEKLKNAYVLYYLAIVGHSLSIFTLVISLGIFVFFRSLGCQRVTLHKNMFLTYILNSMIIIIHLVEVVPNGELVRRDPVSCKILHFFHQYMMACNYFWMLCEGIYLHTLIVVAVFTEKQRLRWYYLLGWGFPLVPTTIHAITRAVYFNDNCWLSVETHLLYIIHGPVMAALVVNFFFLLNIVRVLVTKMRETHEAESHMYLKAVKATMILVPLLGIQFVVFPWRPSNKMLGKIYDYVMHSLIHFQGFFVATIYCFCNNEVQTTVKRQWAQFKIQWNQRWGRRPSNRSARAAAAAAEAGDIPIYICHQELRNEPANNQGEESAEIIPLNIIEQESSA


What was measured:
[1] = biological target: T1, rat calcitonin receptor; test: SPA competition vs 125I-calcitonin, membranes with rat CTR (Assay VIII)
[2] = biological target: T2, rat amylin receptor (rat calcitonin …); test: SPA competition vs 125I-rat amylin, membranes with rat CTR + rat RAMP3 (Assay VI)
[3] = biological target: T3, rat amylin receptor (rat calcitonin …); test: SPA competition with 125I-rat amylin, membranes of BHK cells with rat calcitonin receptor + rat RAMP3 (Assay VI)
[4] = biological target: T4, rat calcitonin receptor; test: SPA competition with 125I-calcitonin, membranes of BHK cells with rat calcitonin receptor (Assay VIII)
[5] = biological target: T4, rat calcitonin receptor; test: IC50 on rat calcitonin receptor divided by IC50 on rat amylin receptor (SPA competition)
[6] = biological target: T5, human calcitonin receptor; test: IC50 on human calcitonin receptor divided by IC50 on human amylin receptor (SPA competition)
How it was run: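 IC₅₀ values were derived by one-site competition analysis of SPA counts. Cell membranes (35 ng/μL) with SPA beads were incubated with test compounds for 120 min at 25° C in Hepes buffer, pH 7.4, containing CaCl2, MgCl₂, OA and Tween20.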

Row | Binder | IC50 [1] | IC50 [2] | IC50 [3] | IC50 [4] | Ratio rCT/rAmylin binding [5] | Ratio hCT/hAmylin binding [6]
1 | K([AEEA-γGlu-C20 diacid])CNTATCATQRLANFLRHSSPNFGAIPSSTNVGSRTY-NH2 (disulfide 2-7; N-terminus assumed; SMILES CC[C@H](C)[C@H](NC(=O)[C@H](C)NC(=O)CNC(=O)[C@H](Cc1ccccc1)NC(=O)[C@H](CC(N)=O)NC(=O)[C@@H]1CCCN1C(=O)[C@H](CO)NC(=O)[C@H](CO)NC(=O)[C@H](Cc1c[nH]cn1)NC(=O)[C@H](CCCNC(=N)N)NC(=O)[C@H](CC(C)C)NC(=O)[C@H](Cc1ccccc1)NC(=O)[C@H](CC(N)=O)NC(=O)[C@H](C)NC(=O)[C@H](CC(C)C)NC(=O)[C@H](CCCNC(=N)N)NC(=O)[C@H](CCC(N)=O)NC(=O)[C@@H](NC(=O)[C@H](C)NC(=O)[C@@H]1CSSC[C@H](NC(=O)[C@@H](N)CCCCNC(=O)COCCOCCNC(=O)CC[C@H](NC(=O)CCCCCCCCCCCCCCCCCCC(=O)O)C(=O)O)C(=O)N[C@@H](CC(N)=O)C(=O)N[C@@H]([C@@H](C)O)C(=O)N[C@@H](C)C(=O)N[C@@H]([C@@H](C)O)C(=O)N1)[C@@H](C)O)C(=O)N1CCC[C@H]1C(=O)N[C@@H](CO)C(=O)N[C@@H](CO)C(=O)N[C@H](C(=O)N[C@@H](CC(N)=O)C(=O)N[C@H](C(=O)NCC(=O)N[C@@H](CO)C(=O)N[C@@H](CCCNC(=N)N)C(=O)N[C@H](C(=O)N[C@@H](Cc1ccc(O)cc1)C(N)=O)[C@@H](C)O)C(C)C)[C@@H](C)O, Acylated analogue of human amylin; also called compound 38) | 38 nM | 0.383 nM | – | – | – | –
2 | K([γGlu-γGlu-C20 diacid])CNTATCATQRLADFLRHSSPNFGAIPSSTNVGSRTY-NH2 (disulfide 2-7; N-terminus assumed; SMILES CC[C@H](C)[C@H](NC(=O)[C@H](C)NC(=O)CNC(=O)[C@H](Cc1ccccc1)NC(=O)[C@H](CC(N)=O)NC(=O)[C@@H]1CCCN1C(=O)[C@H](CO)NC(=O)[C@H](CO)NC(=O)[C@H](Cc1c[nH]cn1)NC(=O)[C@H](CCCNC(=N)N)NC(=O)[C@H](CC(C)C)NC(=O)[C@H](Cc1ccccc1)NC(=O)[C@H](CC(=O)O)NC(=O)[C@H](C)NC(=O)[C@H](CC(C)C)NC(=O)[C@H](CCCNC(=N)N)NC(=O)[C@H](CCC(N)=O)NC(=O)[C@@H](NC(=O)[C@H](C)NC(=O)[C@@H]1CSSC[C@H](NC(=O)[C@@H](N)CCCCNC(=O)CC[C@H](NC(=O)CC[C@H](NC(=O)CCCCCCCCCCCCCCCCCCC(=O)O)C(=O)O)C(=O)O)C(=O)N[C@@H](CC(N)=O)C(=O)N[C@@H]([C@@H](C)O)C(=O)N[C@@H](C)C(=O)N[C@@H]([C@@H](C)O)C(=O)N1)[C@@H](C)O)C(=O)N1CCC[C@H]1C(=O)N[C@@H](CO)C(=O)N[C@@H](CO)C(=O)N[C@H](C(=O)N[C@@H](CC(N)=O)C(=O)N[C@H](C(=O)NCC(=O)N[C@@H](CO)C(=O)N[C@@H](CCCNC(=N)N)C(=O)N[C@H](C(=O)N[C@@H](Cc1ccc(O)cc1)C(N)=O)[C@@H](C)O)C(C)C)[C@@H](C)O, Acylated analogue of human amylin; also called compound 52) | 159 nM | 0.335 nM | – | – | – | –
3 | K([γGlu-C20 diacid])CNTATCATQRLANFLRHSSPNFGAIPSSTNVGSNTY-NH2 (disulfide 2-7 (inferred), analogue of human amylin; also called compound 48) [N^ε1-[(4S)-4-carboxy-4-(19-carboxynonadecanoylamino)butanoyl]-[Arg17,Pro21,Pro27]-h-amylin] | – | – | 0.558 nM | 112 nM | 201 | 69.7
4 | K([AEEA-γGlu-C20 diacid])CNTATCATQRLANFLRHSSPNFGAIPSSTNVGSNTY-NH2 (disulfide 2-7 (inferred), analogue of human amylin; also called compound 41) | – | – | 1.37 nM | 74.1 nM | 54 | 49.9
5 | K(C20 diacid)CNTATCATQRLANFLRHSSPNFGAIPSSTNVGSNTY-NH2 (disulfide 2-7 (inferred), analogue of human amylin; also called compound 42) [N^ε1-19-carboxynonadecanoyl-[Arg17,Pro21,Pro27]-h-amylin] | – | – | 0.603 nM | 15.3 nM | 25.4 | 30.7
6 | K([γGlu-C20 diacid])RCNTATCATQRLANFLRHSSPNFGAIPSSTNVGSHTY-NH2 (disulfide 3-8 (inferred), analogue of human amylin extended by Lys at the N-terminus; also called compound 44) | – | – | 0.369 nM | 19.6 nM | 53.3 | 17.7
7 | {C20 diacid-γGlu}-GRCNTATCATQRLANFLRHSSPNFGAIPSSTNVGSNTY-NH2 (disulfide 3-8 (inferred), analogue of human amylin extended by Gly at the N-terminus; also called compound 46) [N^-1-[(4S)-4-carboxy-4-(19-carboxynonadecanoylamino)butanoyl]-Gly[Arg1,Arg17,Pro21,Pro27]-h-amylin] | – | – | 0.33 nM | 46.8 nM | 142 | 48.9
8 | {C20 diacid-γGlu}-GRCNTATCATQRLANFLRHSSPNFGAIPSSTNVGSHTY-NH2 (disulfide 3-8 (inferred), analogue of human amylin extended by Gly at the N-terminus; also called compound 47) | – | – | 0.203 nM | 17.1 nM | 84.3 | 44.9
9 | K([AEEA-C20 diacid])CNTATCATQRLANFLRHSSPNFGAIPSSTNVGSNTY-NH2 (disulfide 2-7 (inferred), analogue of human amylin; also called compound 43) [N^ε1-[2-[2-[2-(19-carboxynonadecanoylamino)ethoxy]ethoxy]acetyl]-[Arg17,Pro21,Pro27]-h-amylin] | – | – | 0.11 nM | 7.6 nM | 69.1 | 34.7
10 | K([AEEA-γGlu-C20 diacid])RCNTATCATQRLANFLRHSSPNFGAIPSSTNVGSHTY-NH2 (disulfide 3-8 (inferred), analogue of human amylin extended by Lys at the N-terminus; also called compound 45) | – | – | 0.623 nM | 41.8 nM | 67.1 | 26.8
